The results in this text go back to patent US20040192610A1.

For the assay, the target named is rat neuronal nicotinic acetylcholine receptor, α7 subtype (rat) (UniProt Q05941). Put plainly: cell-based or functional assay.
UniProt Q05941, sequence (Q05941 23-502): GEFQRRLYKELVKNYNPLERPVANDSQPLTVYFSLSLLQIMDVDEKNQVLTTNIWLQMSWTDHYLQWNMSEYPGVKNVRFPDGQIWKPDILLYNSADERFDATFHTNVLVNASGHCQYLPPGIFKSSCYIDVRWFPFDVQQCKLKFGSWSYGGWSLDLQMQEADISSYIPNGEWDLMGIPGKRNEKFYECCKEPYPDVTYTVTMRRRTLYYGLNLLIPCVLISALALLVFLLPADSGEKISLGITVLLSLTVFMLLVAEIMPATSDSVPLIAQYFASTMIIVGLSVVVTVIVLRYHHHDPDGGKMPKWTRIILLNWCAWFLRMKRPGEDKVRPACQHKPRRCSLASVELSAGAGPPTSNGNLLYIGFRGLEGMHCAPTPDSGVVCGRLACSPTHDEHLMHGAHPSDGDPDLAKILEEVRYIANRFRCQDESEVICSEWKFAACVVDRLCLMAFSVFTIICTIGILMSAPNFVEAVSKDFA

Turning to α-conotoxin peptide PnIA, the IC50 of antagonistic activity (oocyte electrophysiology) is 229 nmol.
